In US20110021746A1 (published 2011):

Biological target: T1, TNF-α (UniProt P01375 77-233, biotinylated)
T1 construct: also called TNF-alpha; biotintylated TNF-α soluble protein (R&D Systems)
Test: Octet BLI, biotinylated TNF-α on streptavidin tips
Procedure: The target protein was biotintylated TNF-α soluble protein (R&D Systems) and is at a concentration of 0.25 ug/ml for loading onto the streptavidin sensor tips. […] The Octet was run using the manufacturers protocol for Basic Kinetic Assay.

T1 sequence (P01375 77-233 limits assumed): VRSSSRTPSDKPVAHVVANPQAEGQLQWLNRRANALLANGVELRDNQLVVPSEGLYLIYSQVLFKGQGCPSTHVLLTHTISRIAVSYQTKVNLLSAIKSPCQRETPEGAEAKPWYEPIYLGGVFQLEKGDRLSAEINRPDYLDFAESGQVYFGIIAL

B1: TNF-α binder R41A6 (designed binder)
chain: NVSPPRRARVTDATETTITISWEHSEDDCYSYIYYFQVDAVPANGQTPIQRTISGYETYYTITGLQPGTDYKIYLYTLNSAGFCPPYSKPVVIDAST
notes: 14FN3 variant; for the Octet expressed from pET-20b with pelB signal and C-terminal hexahistidine tag; also called TNF A6
Work on B1 yielded a Kd of 20 to 100 nM.
